Test results reported in article PMC6555819, “Comprehensive study of nuclear receptor DNA binding provides a revised framework for understanding receptor specificity”.

Tests used:
RXRa = RXRa (Homo sapiens, UniProt P19793); experiment: no ligand; PBM; 180 nM; PBS pH 7.4, 2% milk, 0.02% Triton X-100, 1 mM DTT, BSA, 0.4 mg/ml salmon testes DNA; details: tags: His cleaved; chain copies: 2; label: surface-attached array probe
RARb:RXRa = RARb:RXRa (Homo sapiens, UniProt P10826;P19793 full;full); experiment: no ligand; PBM; 270 nM : 90 nM RXRa; PBS pH 7.4, 2% milk, 0.02% Triton X-100, 1 mM DTT, BSA, 0.4 mg/ml salmon testes DNA; details: tags: His kept;His cleaved; copies: 1;1; label: surface-attached array probe
Method in brief: (§1)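 Custom Agilent 4×180K protein-binding microarrays carried double-stranded probes. Their 34-nt variable regions held direct-repeat seeds, single-nucleotide variants, half-site ablations and random human genomic background sequences. Arrays were incubated 1 h with ligand-free nuclear receptor dimers in PBS pH 7.4, 2% milk, 0.02% Triton X-100, 1 mM DTT, 0.2 mg/mL BSA and 0.4 mg/ml salmon testes DNA. Antibodies against each partner (one per run) detected binding, and scanned fluorescence was regression-normalized. Binding z-scores use random background probes as reference.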

RARg:RXRa = RARg:RXRa (Homo sapiens, UniProt P13631;P19793 full;full); experiment: as above; details: tags: His kept;His cleaved; copies: 1;1; label: surface-attached array probe
Method in brief: as §1

LXRa:RXRa = LXRa:RXRa (Homo sapiens, UniProt Q13133;P19793 full;full); experiment: as above; details: tags: His kept;His cleaved; copies: 1;1; label: surface-attached array probe
Method in brief: as §1

LXRb:RXRa = LXRb:RXRa (Homo sapiens, UniProt P55055;P19793 full;full); experiment: as above; details: tags: His kept;His cleaved; copies: 1;1; label: surface-attached array probe
Method in brief: as §1

PXR:RXRa = PXR:RXRa (Homo sapiens, UniProt O75469;P19793 full;full); experiment: as above; details: tags: His kept;His cleaved; copies: 1;1; label: surface-attached array probe
Method in brief: as §1

RARa:RXRa = RARa:RXRa (Homo sapiens, UniProt P10276;P19793 full;full); experiment: as above; details: tags: His kept;His cleaved; copies: 1;1; label: surface-attached array probe
Method in brief: as §1

PPARa:RXRa = PPARa:RXRa (Homo sapiens, UniProt Q07869;P19793 full;full); experiment: as above; details: tags: GST kept;His cleaved; copies: 1;1; label: surface-attached array probe
Method in brief: as §1

FXR:RXRa = FXR:RXRa (Homo sapiens, UniProt Q96RI1;P19793 full;full); experiment: as above; details: tags: His kept;His cleaved; copies: 1;1; label: surface-attached array probe
Method in brief: as §1

VDR:RXRa = VDR:RXRa (Homo sapiens, UniProt P11473;P19793 full;full); experiment: as above; details: tags: His kept;His cleaved; copies: 1;1; label: surface-attached array probe
Method in brief: as §1

THRa:RXRa = THRa:RXRa (Homo sapiens, UniProt P10827;P19793 full;full); experiment: no ligand; PBM; 90 nM : 90 nM RXRa; PBS pH 7.4, 2% milk, 0.02% Triton X-100, 1 mM DTT, BSA, 0.4 mg/ml salmon testes DNA; details: tags: His kept;His cleaved; copies: 1;1; label: surface-attached array probe
PPARg:RXRa = PPARg:RXRa (Homo sapiens, UniProt P37231;P19793 full;full); experiment: no ligand; PBM; 180 nM : 90 nM RXRa; PBS pH 7.4, 2% milk, 0.02% Triton X-100, 1 mM DTT, BSA, 0.4 mg/ml salmon testes DNA; details: tags: His kept;His cleaved; copies: 1;1; label: surface-attached array probe

Sequence of LXRb:RXRa (P55055 whole entry, chain 1 of 2): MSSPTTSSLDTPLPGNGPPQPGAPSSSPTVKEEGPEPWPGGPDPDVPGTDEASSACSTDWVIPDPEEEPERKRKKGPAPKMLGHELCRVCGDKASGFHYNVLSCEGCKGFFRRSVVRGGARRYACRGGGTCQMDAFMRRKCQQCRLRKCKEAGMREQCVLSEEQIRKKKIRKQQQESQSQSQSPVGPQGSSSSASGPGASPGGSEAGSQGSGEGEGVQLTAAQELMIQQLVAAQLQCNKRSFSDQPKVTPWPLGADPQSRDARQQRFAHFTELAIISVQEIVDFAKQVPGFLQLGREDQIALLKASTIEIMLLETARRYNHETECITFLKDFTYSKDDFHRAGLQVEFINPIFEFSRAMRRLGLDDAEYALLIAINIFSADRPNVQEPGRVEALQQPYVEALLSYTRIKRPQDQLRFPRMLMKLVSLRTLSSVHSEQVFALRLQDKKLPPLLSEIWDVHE
Sequence of LXRb:RXRa (P19793 whole entry, chain 2 of 2): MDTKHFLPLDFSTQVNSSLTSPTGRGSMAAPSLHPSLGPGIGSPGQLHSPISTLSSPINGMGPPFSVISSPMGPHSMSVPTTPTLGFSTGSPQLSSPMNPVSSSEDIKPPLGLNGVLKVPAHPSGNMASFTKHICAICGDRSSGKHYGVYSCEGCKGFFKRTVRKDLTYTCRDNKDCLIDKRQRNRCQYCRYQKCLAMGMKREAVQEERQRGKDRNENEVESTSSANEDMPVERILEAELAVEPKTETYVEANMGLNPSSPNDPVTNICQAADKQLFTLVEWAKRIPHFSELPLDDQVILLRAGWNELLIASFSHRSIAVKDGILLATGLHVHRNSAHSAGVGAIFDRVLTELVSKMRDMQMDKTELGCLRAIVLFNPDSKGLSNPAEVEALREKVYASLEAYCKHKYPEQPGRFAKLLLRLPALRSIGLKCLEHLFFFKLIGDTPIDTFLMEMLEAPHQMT
Sequence of RXRa (P19793 whole entry): as the sequence (P19793 whole entry, chain 2 of 2) above
Sequence of VDR:RXRa (P11473 whole entry, chain 1 of 2): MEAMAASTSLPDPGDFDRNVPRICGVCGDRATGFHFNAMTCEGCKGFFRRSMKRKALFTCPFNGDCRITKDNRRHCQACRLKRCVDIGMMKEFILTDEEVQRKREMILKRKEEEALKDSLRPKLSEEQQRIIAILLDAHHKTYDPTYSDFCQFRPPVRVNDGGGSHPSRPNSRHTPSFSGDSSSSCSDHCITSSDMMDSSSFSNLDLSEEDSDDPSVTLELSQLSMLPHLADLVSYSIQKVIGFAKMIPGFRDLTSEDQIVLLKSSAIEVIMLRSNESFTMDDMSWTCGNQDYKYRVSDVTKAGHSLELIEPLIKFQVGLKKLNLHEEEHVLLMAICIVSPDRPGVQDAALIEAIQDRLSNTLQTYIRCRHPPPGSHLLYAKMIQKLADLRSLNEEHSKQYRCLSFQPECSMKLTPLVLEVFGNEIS
Sequence of VDR:RXRa (P19793 whole entry, chain 2 of 2): as the sequence (P19793 whole entry, chain 2 of 2) above
Sequence of FXR:RXRa (Q96RI1 whole entry, chain 1 of 2): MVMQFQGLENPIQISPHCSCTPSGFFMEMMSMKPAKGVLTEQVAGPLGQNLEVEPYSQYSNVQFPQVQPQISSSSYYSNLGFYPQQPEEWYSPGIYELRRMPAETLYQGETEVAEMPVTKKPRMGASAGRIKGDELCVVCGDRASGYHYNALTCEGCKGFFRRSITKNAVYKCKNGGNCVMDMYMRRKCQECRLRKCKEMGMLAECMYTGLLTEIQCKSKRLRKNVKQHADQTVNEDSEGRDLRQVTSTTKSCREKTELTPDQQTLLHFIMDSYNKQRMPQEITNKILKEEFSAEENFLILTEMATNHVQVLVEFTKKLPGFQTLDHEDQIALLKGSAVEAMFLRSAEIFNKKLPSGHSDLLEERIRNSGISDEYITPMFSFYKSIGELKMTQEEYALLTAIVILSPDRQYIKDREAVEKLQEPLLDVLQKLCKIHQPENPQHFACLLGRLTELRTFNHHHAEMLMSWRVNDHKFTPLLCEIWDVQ
Sequence of FXR:RXRa (P19793 whole entry, chain 2 of 2): as the sequence (P19793 whole entry, chain 2 of 2) above
Sequence of PPARa:RXRa (Q07869 whole entry, chain 1 of 2): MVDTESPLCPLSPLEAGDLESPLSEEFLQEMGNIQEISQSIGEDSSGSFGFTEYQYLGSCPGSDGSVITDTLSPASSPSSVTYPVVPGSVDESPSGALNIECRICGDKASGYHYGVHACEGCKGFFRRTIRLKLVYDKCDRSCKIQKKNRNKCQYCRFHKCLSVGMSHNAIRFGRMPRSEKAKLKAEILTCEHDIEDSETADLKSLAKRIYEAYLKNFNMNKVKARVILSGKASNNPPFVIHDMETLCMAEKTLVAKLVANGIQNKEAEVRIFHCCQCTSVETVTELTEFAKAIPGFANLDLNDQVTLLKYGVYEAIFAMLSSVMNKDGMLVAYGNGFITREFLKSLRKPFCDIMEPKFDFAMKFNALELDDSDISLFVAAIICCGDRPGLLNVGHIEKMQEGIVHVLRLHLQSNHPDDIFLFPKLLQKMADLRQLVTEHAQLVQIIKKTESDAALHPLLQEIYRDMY
Sequence of PPARa:RXRa (P19793 whole entry, chain 2 of 2): as the sequence (P19793 whole entry, chain 2 of 2) above

Row | Binder | binding signal (RXRa) | binding signal (RARb:RXRa) | binding signal (RARg:RXRa) | binding signal (LXRa:RXRa) | binding signal (LXRb:RXRa) | binding signal (PXR:RXRa) | binding signal (RARa:RXRa) | binding signal (PPARa:RXRa) | binding signal (FXR:RXRa) | binding signal (VDR:RXRa) | binding signal (THRa:RXRa) | binding signal (PPARg:RXRa)
1 | NRC3_wobSeed109_DR4_C7A_o1 (dsDNA) DNA 1: GCCGTCAAAGGTCATAGGAGGTCAGTGAAGACAGATGCGATTGACAGCGTAGAATGAAGG DNA 2: CCTTCATTCTACGCTGTCAATCGCATCTGTCTTCACTGACCTCCTATGACCTTTGACGGC | 8.51 PBM z-score against 500 random probes | 6.2 PBM z-score against 500 random probes | 8.29 PBM z-score against 500 random probes | 8.48 PBM z-score against 500 random probes | 7.17 PBM z-score against 500 random probes | 7.51 PBM z-score against 500 random probes | 7.3 PBM z-score against 500 random probes | 7.01 PBM z-score against 500 random probes | 8.92 PBM z-score against 500 random probes | 7.29 PBM z-score against 500 random probes | 5.57 PBM z-score against 500 random probes | –
2 | NRC3_random_hg19_355_o1 (dsDNA) DNA 1: GCTCACCGTGTTAGCCAGGATGGTCTCAATCTCCTGGCGATTGACAGCGTAGAATGAAGG DNA 2: CCTTCATTCTACGCTGTCAATCGCCAGGAGATTGAGACCATCCTGGCTAACACGGTGAGC | -0.34 PBM z-score against 500 random probes | – | – | – | – | – | -0.62 PBM z-score against 500 random probes | 0.1 PBM z-score against 500 random probes | – | – | -0.48 PBM z-score against 500 random probes | -0.61 PBM z-score against 500 random probes
3 | NRC3_random_hg19_478_o1 (dsDNA) DNA 1: GCATCAGCCATTTGGTATGCAAGTAGATTAGAAGCCGCGATTGACAGCGTAGAATGAAGG DNA 2: CCTTCATTCTACGCTGTCAATCGCGGCTTCTAATCTACTTGCATACCAAATGGCTGATGC | – | – | – | -0.84 PBM z-score against 500 random probes | – | – | -0.34 PBM z-score against 500 random probes | -0.63 PBM z-score against 500 random probes | – | – | -0.66 PBM z-score against 500 random probes | 0.2 PBM z-score against 500 random probes
4 | NRC3_wobSeed45_DR1_A20C_o1 (dsDNA) DNA 1: GCTGTCAAAGTTCAAAGGTCACGTAAGTATCCACACGCGATTGACAGCGTAGAATGAAGG DNA 2: CCTTCATTCTACGCTGTCAATCGCGTGTGGATACTTACGTGACCTTTGAACTTTGACAGC | 11 PBM z-score against 500 random probes | 6.42 PBM z-score against 500 random probes | 9.56 PBM z-score against 500 random probes | 8.34 PBM z-score against 500 random probes | 7.9 PBM z-score against 500 random probes | 8.16 PBM z-score against 500 random probes | 9.47 PBM z-score against 500 random probes | 7.56 PBM z-score against 500 random probes | 9.44 PBM z-score against 500 random probes | 7.65 PBM z-score against 500 random probes | 5.33 PBM z-score against 500 random probes | 11.8 PBM z-score against 500 random probes
5 | NRC3_wobSeed74_DR3_T9A_o1 (dsDNA) DNA 1: GCTCTAGTAGGTCACGGAGGTCACACACGACGGGTAGCGATTGACAGCGTAGAATGAAGG DNA 2: CCTTCATTCTACGCTGTCAATCGCTACCCGTCGTGTGTGACCTCCGTGACCTACTAGAGC | – | 5.43 PBM z-score against 500 random probes | – | – | – | 6.39 PBM z-score against 500 random probes | 7.07 PBM z-score against 500 random probes | – | – | 7.91 PBM z-score against 500 random probes | 4.93 PBM z-score against 500 random probes | 9.93 PBM z-score against 500 random probes
6 | NRC3_wobSeed29_DR1_T20C_o1 (dsDNA) DNA 1: GCGCTTACGGGTCAAAGGTCATAGCATGAATAGAATGCGATTGACAGCGTAGAATGAAGG DNA 2: CCTTCATTCTACGCTGTCAATCGCATTCTATTCATGCTATGACCTTTGACCCGTAAGCGC | 10.8 PBM z-score against 500 random probes | 5.71 PBM z-score against 500 random probes | 9.01 PBM z-score against 500 random probes | 7.26 PBM z-score against 500 random probes | 7.5 PBM z-score against 500 random probes | 7.5 PBM z-score against 500 random probes | 9.33 PBM z-score against 500 random probes | 7.49 PBM z-score against 500 random probes | 8.57 PBM z-score against 500 random probes | 7.18 PBM z-score against 500 random probes | 4.82 PBM z-score against 500 random probes | 13.1 PBM z-score against 500 random probes
7 | NRC3_wobSeed121_DR5_T8G_o1 (dsDNA) DNA 1: GCCAAACGAGGTCACCGGAAGGTCAAAGTCCGCATGGCGATTGACAGCGTAGAATGAAGG DNA 2: CCTTCATTCTACGCTGTCAATCGCCATGCGGACTTTGACCTTCCGGTGACCTCGTTTGGC | 9.51 PBM z-score against 500 random probes | 6.23 PBM z-score against 500 random probes | 9.6 PBM z-score against 500 random probes | 7.39 PBM z-score against 500 random probes | 7.15 PBM z-score against 500 random probes | 7.41 PBM z-score against 500 random probes | 8.77 PBM z-score against 500 random probes | 7.14 PBM z-score against 500 random probes | 8.64 PBM z-score against 500 random probes | 7.56 PBM z-score against 500 random probes | 5.39 PBM z-score against 500 random probes | –
8 | NRC3_wobSeed77_DR3_C8G_o1 (dsDNA) DNA 1: GCACTTAGGGGTCAACGAGGTTATAGCACGCGTATAGCGATTGACAGCGTAGAATGAAGG DNA 2: CCTTCATTCTACGCTGTCAATCGCTATACGCGTGCTATAACCTCGTTGACCCCTAAGTGC | 9.89 PBM z-score against 500 random probes | 5.68 PBM z-score against 500 random probes | 8.09 PBM z-score against 500 random probes | 7.15 PBM z-score against 500 random probes | 6.91 PBM z-score against 500 random probes | 7.16 PBM z-score against 500 random probes | 7.93 PBM z-score against 500 random probes | 7.03 PBM z-score against 500 random probes | 9.08 PBM z-score against 500 random probes | 8.74 PBM z-score against 500 random probes | 4.82 PBM z-score against 500 random probes | –
9 | NRC3_random_hg19_204_o1 (dsDNA) DNA 1: GCGCCTGCATCTCCACATCCATGGAGTCCTGCTGAGGCGATTGACAGCGTAGAATGAAGG DNA 2: CCTTCATTCTACGCTGTCAATCGCCTCAGCAGGACTCCATGGATGTGGAGATGCAGGCGC | -0.59 PBM z-score against 500 random probes | – | – | – | – | -0.93 PBM z-score against 500 random probes | -0.76 PBM z-score against 500 random probes | – | – | – | -0.86 PBM z-score against 500 random probes | 0.07 PBM z-score against 500 random probes
10 | NRC3_wobSeed1_DR0_T8G_o1 (dsDNA) DNA 1: GCCAAACGAGGTCAAGGTCAAAGTCGGTTTGTGCCAGCGATTGACAGCGTAGAATGAAGG DNA 2: CCTTCATTCTACGCTGTCAATCGCTGGCACAAACCGACTTTGACCTTGACCTCGTTTGGC | 8.3 PBM z-score against 500 random probes | 5.8 PBM z-score against 500 random probes | 7.53 PBM z-score against 500 random probes | 6.82 PBM z-score against 500 random probes | 6.16 PBM z-score against 500 random probes | 6.83 PBM z-score against 500 random probes | 7.18 PBM z-score against 500 random probes | 6.72 PBM z-score against 500 random probes | 8.73 PBM z-score against 500 random probes | 6.53 PBM z-score against 500 random probes | 4.94 PBM z-score against 500 random probes | –
11 | NRC3_wobSeed37_DR1_G22T_o1 (dsDNA) DNA 1: GCCGTCCAAGGTCAAAGGTCATTGAAGAGATGACGGGCGATTGACAGCGTAGAATGAAGG DNA 2: CCTTCATTCTACGCTGTCAATCGCCCGTCATCTCTTCAATGACCTTTGACCTTGGACGGC | 11.1 PBM z-score against 500 random probes | – | 9.4 PBM z-score against 500 random probes | 7.79 PBM z-score against 500 random probes | 7.46 PBM z-score against 500 random probes | 7.7 PBM z-score against 500 random probes | 9.26 PBM z-score against 500 random probes | – | 8.93 PBM z-score against 500 random probes | 7.41 PBM z-score against 500 random probes | 5.12 PBM z-score against 500 random probes | 12.1 PBM z-score against 500 random probes
12 | NRC3_wobSeed99_DR4_A12T_o1 (dsDNA) DNA 1: GCTCTCGGAGGTCACGAAAGGTCAGAGCTCGACATCGCGATTGACAGCGTAGAATGAAGG DNA 2: CCTTCATTCTACGCTGTCAATCGCGATGTCGAGCTCTGACCTTTCGTGACCTCCGAGAGC | 8.83 PBM z-score against 500 random probes | 6.17 PBM z-score against 500 random probes | 8.59 PBM z-score against 500 random probes | 8.32 PBM z-score against 500 random probes | 7.35 PBM z-score against 500 random probes | 7.53 PBM z-score against 500 random probes | 7.86 PBM z-score against 500 random probes | 6.75 PBM z-score against 500 random probes | 8.33 PBM z-score against 500 random probes | 6.9 PBM z-score against 500 random probes | 5.45 PBM z-score against 500 random probes | –
13 | NRC3_random_hg19_67_o1 (dsDNA) DNA 1: GCCTGGCTGGGCATGGTGGCTCATGCCTGTAATCCCGCGATTGACAGCGTAGAATGAAGG DNA 2: CCTTCATTCTACGCTGTCAATCGCGGGATTACAGGCATGAGCCACCATGCCCAGCCAGGC | – | – | – | – | – | – | -0.94 PBM z-score against 500 random probes | – | – | – | -0.95 PBM z-score against 500 random probes | -1.37 PBM z-score against 500 random probes
